Test results from patent US20250213707A1, “COMPOUND FOR INCREASING EFFICACY OF ONCOLYTIC VIRUSES” (ABLEVIA BIOTECH GMBH, priority 2022, published 2025).

The substances below were run against Polyclonal antibody ab6982 (Abcam) (assay: cyclic peptide microarray, fiber peptides).

Substance	rank of binding signal [rank]
AHLIIRF (peptide)	6
AQNQLNI (peptide)	172
ARPSEDT (peptide)	41
ATSSYTF (peptide)	80
AYSMSFS (peptide)	167
DPEYWNE (peptide)	53
DTFNPVY (peptide)	130
EYWNFRN (peptide)	113
FLDPEYW (peptide)	50
FSWDWSG (peptide)	186
FVSPNG (peptide)	13
GQGPLFI (peptide)	58
HLIIRFD (peptide)	60
HNLDINY (peptide)	9
IFATSSY (peptide)	104
LGQGPLF (peptide)	27
LGTGLSF (peptide)	44
LNLRLGQ (peptide)	173
LNNSFLD (peptide)	180
MSFSWDW (peptide)	22

Substance	rank of binding signal [rank]
NKGLYLF (peptide)	20
NQLNLRL (peptide)	72
NYINEIF (peptide)	16
PELTPPF (peptide)	47
PEYWNFR (peptide)	31
QGPLFIN (peptide)	93
QLNLRLG (peptide)	136
QNQLNLR (peptide)	82
QSAHLII (peptide)	126
RPSEDTF (peptide)	24
SAHLIIR (peptide)	65
SAYSMSF (peptide)	108
SFSWDWS (peptide)	100
SMSFSWD (peptide)	144
SSYTFSY (peptide)	42
SWDWSGH (peptide)	193
SYTFSYI (peptide)	64
YINEIFA (peptide)	168
YSMSFSW (peptide)	8
YTESYIA (peptide)	181

The substances below were run against Polyclonal antibody ab6982 (Abcam) (assay: cyclic peptide microarray, hexon peptides).

Substance	rank of binding signal [rank]
ALEINLE (peptide)	33
DDDNEDE (peptide)	96
DDNEDEV (peptide)	78
DEVDEQA (peptide)	10
DIETPDT (peptide)	62
DRMYSFF (peptide)	86
EDDDNED (peptide)	63
EDEVDEQ (peptide)	126
EEDDDNE (peptide)	108
EINLEEE (peptide)	6
ETPDTHI (peptide)	51
EVDEQAE (peptide)	17
GDRTRYF (peptide)	80
IETPDTH (peptide)	45
IGYQGFY (peptide)	136
INLEEED (peptide)	32
KDRMYSF (peptide)	143
LEINLEE (peptide)	4
NIGYQGF (peptide)	187
NLEEEDD (peptide)	65
TRYFSMW (peptide)	73
VDEQAEQ (peptide)	20
YSFFRNF (peptide)	104
